Measured values taken from patent publication US20120128689A1 (GlaxoSmithKline, published 2012).

T1: human IL-23 (human, UniProt Q9NPF7 20-189; P29460 23-328)
T1 sequence 1: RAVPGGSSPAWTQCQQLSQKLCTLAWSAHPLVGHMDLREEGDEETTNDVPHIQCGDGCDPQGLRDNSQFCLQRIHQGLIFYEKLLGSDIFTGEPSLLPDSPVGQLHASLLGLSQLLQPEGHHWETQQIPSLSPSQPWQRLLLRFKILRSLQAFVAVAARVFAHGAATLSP
T1 sequence 2: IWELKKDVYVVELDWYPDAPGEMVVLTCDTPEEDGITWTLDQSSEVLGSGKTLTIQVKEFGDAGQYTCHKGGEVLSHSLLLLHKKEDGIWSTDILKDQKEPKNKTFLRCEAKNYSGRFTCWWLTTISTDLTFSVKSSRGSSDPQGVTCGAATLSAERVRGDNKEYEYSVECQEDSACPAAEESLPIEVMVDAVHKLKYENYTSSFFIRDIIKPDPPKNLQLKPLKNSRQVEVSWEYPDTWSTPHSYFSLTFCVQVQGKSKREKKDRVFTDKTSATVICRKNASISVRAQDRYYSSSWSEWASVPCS

T2: cyno IL-23 (cyno, limits assumed)
T2 construct: Heterodimer of p19 and p40; also called cynomolgus IL-23
T2 chain 1: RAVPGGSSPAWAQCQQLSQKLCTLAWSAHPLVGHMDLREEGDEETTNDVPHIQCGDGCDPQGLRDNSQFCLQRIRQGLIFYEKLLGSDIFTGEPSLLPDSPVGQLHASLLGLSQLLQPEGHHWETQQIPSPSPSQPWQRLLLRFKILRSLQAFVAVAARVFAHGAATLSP
T2 chain 2: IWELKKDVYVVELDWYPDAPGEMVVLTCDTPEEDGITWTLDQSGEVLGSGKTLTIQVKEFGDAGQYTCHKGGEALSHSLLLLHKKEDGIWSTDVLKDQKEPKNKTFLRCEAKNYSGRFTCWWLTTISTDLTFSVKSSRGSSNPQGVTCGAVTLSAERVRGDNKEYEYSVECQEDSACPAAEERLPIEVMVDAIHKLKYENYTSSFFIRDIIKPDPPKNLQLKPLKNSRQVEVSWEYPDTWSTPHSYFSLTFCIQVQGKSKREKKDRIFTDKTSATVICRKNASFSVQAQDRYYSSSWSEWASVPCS


Tests used:
human IL-23 [1] = molecular target: T1, human IL-23; assay: cell-based or functional assay
cyno IL-23 [2] = molecular target: T2, cyno IL-23; assay: SPR Biacore, purified mAb captured on anti-human IgG, cyno IL-23 64-0.062 nM
Experimental: (§1) An anti-human IgG (Biacore BR-1008-39) was immobilised on a Biacore CM5 chip by primary amine coupling in accordance with the manufacturer's instructions. Anti IL-23 antibodies were captured on this surface and after a period of stabilisation, IL-23 (cyno or human) was passed over the antibody captured surface and a binding sensorgram was obtained. […] All runs were double referenced with a buffer injection over the captured antibody surface. Data was analysed using the 1:1 model using the software inherent to the Biacore T100. Analysis was carried out at 25° C. using HBS-EP buffer. Data presented in Tables 1 and 2 are on tissue culture supernatants of HEK cells transiently expressing the antibody of interest unless otherwise indicated.
(§2) This experiment was repeated with purified IL-23 antibodies and data shown in Table 3 was generated using 64, 16, 4, 1, 0.25 and 0.062 nM concentrations of human and cyno IL-23.

human IL-23 [3] = molecular target: T1, human IL-23; assay: SPR Biacore, purified mAb captured on anti-human IgG, human IL-23 64-0.062 nM
Experimental: as §1, §2

human IL-23 [4] = molecular target: T1, human IL-23; assay: SPR Biacore T100, mAb from HEK supernatant captured on anti-human IgG, human IL-23 64-0.062 nM
Experimental: as §1

cyno IL-23 [5] = molecular target: T2, cyno IL-23; assay: SPR Biacore T100, mAb from HEK supernatant captured on anti-human IgG, one concentration of cyno IL-23 (256 nM)
Experimental: as §1

human IL-23 [6] = molecular target: T1, human IL-23; assay: inhibition ELISA: antibody pre-incubated with a constant concentration of human IL-23, IL-23 bound to plate-coated human IL23R Fc chimera detected with biotinylated anti-human IL12, OD450
Experimental: Plates were coated with human IL23R Fc chimera at […] (phosphate buffered saline). 50 μl/well of this mixture was incubated overnight at 4° C. The plates were then washed three times with Phosphate Buffered Saline with 0.05% Tween 20 (PBST). Plates were blocked with 4% skim milk powder (Fluka BioChemika #70166) PBST 100 μl/well for a minimum of 1 hour at room temperature. The plates were then washed three times with Phosphate Buffered Saline+0.05% Tween 20 (PBST). Various concentrations of antibody were incubated in a separate plate with a constant concentration of IL-23 for 1 hour at room temperature. 50 ul of each mixture were transferred to the assay plate and incubated at RT for 1 hr. They were then washed three times with Phosphate Buffered Saline+0.05% Tween 20 (PBST). Bound IL23 was detected by anti human IL12 Biotin labelled Ab (R&D systems BAF219) diluted to 100 ng/ml in 4% skim milk powder (Fluka BioChemika #70166) PBST. 50 μl/well of the biotinylated antibody was added and incubated at RT for 1 hour. The plates were then washed three times with Phosphate Buffered Saline+0.05% Tween 20 (PBST). SA HRP (GE healthcare RPN4401) was diluted 1/4000 in 4% skim milk powder (Fluka BioChemika #70166) PBS, 50 μl/well was added to the plates. The plates were then washed three times with Phosphate Buffered Saline+0.05% Tween 20 (PBST). 50 ul/well of TMB was added to the plates and incubated at RT for 15 min. 25 μl/well of 3 MH₂SO₄ was added to the wells already containing TMB. The plate was read at OD450 nm using the SOftmaxPRO versamax plate reader.

| Binder | IC50 (inhibition of IL-23 driven STAT3 phosphorylation in human activated T cell blasts) (human IL-23 [1]) | Kd (cyno IL-23 [2]) | koff (cyno IL-23 [2]) | kon (cyno IL-23 [2]) | Kd (human IL-23 [3]) | koff (human IL-23 [3]) | kon (human IL-23 [3]) | Kd (human IL-23 [4]) | koff (human IL-23 [4]) | kon (human IL-23 [4]) | Kd (cyno IL-23 [5]) | koff (cyno IL-23 [5]) | kon (cyno IL-23 [5]) | IC50 (read off the curve) (human IL-23 [6]) |
| --- | --- | --- | --- | --- | --- | --- | --- | --- | --- | --- | --- | --- | --- | --- |
| A5M20 (antibody, human IgG1, kappa, V domains shown) VH: QVQLVQSGAEVKKPGSSVKVSCKASGYTFTSYGITWVRQAPGQGLEWMGENYPRSGNTYYNEKFKGRVTITADKSTSTAYMELSSLRSEDTAVYYCARAEFISTVVAPYYYALDYWGQGTLVTVSS VL: DIVMTQSPDSLAVSLGERATINCKASKKVTIFGSISALHWYQQKPGQPPKLIYNLAKLESGVPDRFSGSGSGTDFTLTISSLQAEDVAVYYCLQNKEVPYTFGGGTKVEIKR | 0.0685 nM | 0.086 nM | 0.000176 s⁻¹ | 2.05e+06 M⁻¹ s⁻¹ | 0.061 nM | 0.00014 s⁻¹ | 2.29e+06 M⁻¹ s⁻¹ | 0.066 nM | 0.000159 s⁻¹ | 2.41e+06 M⁻¹ s⁻¹ | 0.115 nM | 0.000306 s⁻¹ | 2.66e+06 M⁻¹ s⁻¹ | ~0.2 nM |
| A5M12 (antibody, human IgG1, V domains shown) VH: QVQLVQSGAEVKKPGSSVKVSCKASGYTFTSYGITWVRQAPGQGLEWMGENYPRSGNTYYNEKFKGRVTITADKSTSTAYMELSSLRSEDTAVYYCARAEFISTVVAPYYYALDYWGQGTLVTVSS VL: DIVMTQSPDSLAVSLGERATINCKASKKVTIYGSTSALHWYQQKPGQPPKLIYNGAKPESGVPDRFSGSGSGTDFTLTISSLQAEDVAVYYCLQNKEVPYTFGGGTKVEIK |  | 0.093 nM | 0.000134 s⁻¹ | 1.45e+06 M⁻¹ s⁻¹ | 0.08 nM | 0.000132 s⁻¹ | 1.66e+06 M⁻¹ s⁻¹ |  |  |  |  |  |  | ~0.2 nM |
| A3M18 (antibody, human IgG1, kappa, V domains shown) VH: QVQLVQSGAEVKKPGSSVKVSCKASGYTFTSYGITWVRQAPGQGLEWMGENYPRSGNTYYNEKFKGRVTITADKSTSTAYMELSSLRSEDTAVYYCARSEFISTVVAPYYYALDYWGQGTLVTVSS VL: DIVMTQSPDSLAVSLGERATINCKASKKVTIFGSTSALHWYQQKPGQPPKLIYNLAKPESGVPDRFSGSGSGTDFTLTISSLQAEDVAVYYCLQNKEVPYTFGGGTKVEIKR |  |  |  |  |  |  |  | 0.066 nM | 0.000115 s⁻¹ | 1.73e+06 M⁻¹ s⁻¹ | 0.185 nM | 0.000163 s⁻¹ | 883000 M⁻¹ s⁻¹ |  |
| A6M20 (antibody, human IgG1, kappa, V domains shown) VH: QVQLVQSGAEVKKPGSSVKVSCKASGYTFTSYGITWVRQAPGQGLEWMGENYPRSGNTYYNEKFKGRVTITADKSTSTAYMELSSLRSEDTAVYYCARVEFISTVVAPYYYALDYWGQGTLVTVSS VL: DIVMTQSPDSLAVSLGERATINCKASKKVTIFGSISALHWYQQKPGQPPKLIYNLAKLESGVPDRFSGSGSGTDFTLTISSLQAEDVAVYYCLQNKEVPYTFGGGTKVEIKR |  |  |  |  |  |  |  | 0.078 nM | 0.000205 s⁻¹ | 2.62e+06 M⁻¹ s⁻¹ | 0.136 nM | 0.000497 s⁻¹ | 3.65e+06 M⁻¹ s⁻¹ |  |
| A5M0 (antibody, human IgG1, kappa, V domains shown) VH: QVQLVQSGAEVKKPGSSVKVSCKASGYTFTSYGITWVRQAPGQGLEWMGENYPRSGNTYYNEKFKGRVTITADKSTSTAYMELSSLRSEDTAVYYCARAEFISTVVAPYYYALDYWGQGTLVTVSS VL: DIVMTQSPDSLAVSLGERATINCKASKKVTIFGSISALHWYQQKPGQPPKLIYNGAKLESGVPDRFSGSGSGTDFTLTISSLQAEDVAVYYCLQNKEVPYTFGGGTKVEIKR |  | 0.173 nM | 0.000224 s⁻¹ | 1.3e+06 M⁻¹ s⁻¹ | 0.114 nM | 0.000175 s⁻¹ | 1.54e+06 M⁻¹ s⁻¹ |  |  |  |  |  |  | ~0.3 nM |

Other lines, results leading:

| IC50 (inhibition of IL-23 driven STAT3 phosphorylation in human activated T cell blasts) (human IL-23 [1]) | Kd (cyno IL-23 [2]) | koff (cyno IL-23 [2]) | kon (cyno IL-23 [2]) | Kd (human IL-23 [3]) | koff (human IL-23 [3]) | kon (human IL-23 [3]) | Kd (human IL-23 [4]) | koff (human IL-23 [4]) | kon (human IL-23 [4]) | Kd (cyno IL-23 [5]) | koff (cyno IL-23 [5]) | kon (cyno IL-23 [5]) | IC50 (read off the curve) (human IL-23 [6]) | Binder |
| --- | --- | --- | --- | --- | --- | --- | --- | --- | --- | --- | --- | --- | --- | --- |
|  | 0.085 nM | 0.000147 s⁻¹ | 1.74e+06 M⁻¹ s⁻¹ | 0.065 nM | 0.000132 s⁻¹ | 2.02e+06 M⁻¹ s⁻¹ |  |  |  |  |  |  | ~0.2 nM | A24AM4 (antibody, human IgG1, kappa, V domains shown) VH: QVQLVQSGAEVKKPGSSVKVSCKASGYTFTSYGITWVRQAPGQGLEWMGENYPRSGNIYYNEKFKGRVTITADKSTSTAYMELSSLRSEDTAVYYCARAEFISTVVAPYYYALDYWGQGTLVTVSS VL: DIVMTQSPDSLAVSLGERATINCKASKKVTIFGSTSALHWYQQKPGQPPKLIYNGAKPESGVPDRFSGSGSGTDFTLTISSLQAEDVAVYYCLQNKEVPYTFGGGTKVEIKR |
| 0.0384 nM | 0.075 nM | 0.00012 s⁻¹ | 1.6e+06 M⁻¹ s⁻¹ | 0.064 nM | 0.000112 s⁻¹ | 1.74e+06 M⁻¹ s⁻¹ | 0.065 nM | 0.000113 s⁻¹ | 1.73e+06 M⁻¹ s⁻¹ | 0.169 nM | 0.000123 s⁻¹ | 727000 M⁻¹ s⁻¹ | ~0.2 nM | A5M21 (antibody, human IgG1, kappa, V domains shown) VH: QVQLVQSGAEVKKPGSSVKVSCKASGYTFTSYGITWVRQAPGQGLEWMGENYPRSGNTYYNEKFKGRVTITADKSTSTAYMELSSLRSEDTAVYYCARAEFISTVVAPYYYALDYWGQGTLVTVSS VL: DIVMTQSPDSLAVSLGERATINCKASKKVTIYGSTSALHWYQQKPGQPPKLIYNLAKPESGVPDRFSGSGSGTDFTLTISSLQAEDVAVYYCLQNKEVPYTFGGGTKVEIKR |
| 0.0473 nM | 0.07 nM | 0.000132 s⁻¹ | 1.88e+06 M⁻¹ s⁻¹ | 0.053 nM | 0.000115 s⁻¹ | 2.16e+06 M⁻¹ s⁻¹ | 0.051 nM | 0.000122 s⁻¹ | 2.4e+06 M⁻¹ s⁻¹ | 0.092 nM | 0.000176 s⁻¹ | 1.91e+06 M⁻¹ s⁻¹ | ~0.2 nM | A24AM18 (antibody, human IgG1, kappa, V domains shown) VH: QVQLVQSGAEVKKPGSSVKVSCKASGYTFTSYGITWVRQAPGQGLEWMGENYPRSGNIYYNEKFKGRVTITADKSTSTAYMELSSLRSEDTAVYYCARAEFISTVVAPYYYALDYWGQGTLVTVSS VL: DIVMTQSPDSLAVSLGERATINCKASKKVTIFGSTSALHWYQQKPGQPPKLIYNLAKPESGVPDRFSGSGSGTDFTLTISSLQAEDVAVYYCLQNKEVPYTFGGGTKVEIKR |
